Experimental data: PMC4721966

Experiments:
[1] = target: Aureochrome 1a from Phaeodactylum tricornutum, full-length protein (PtAu1a_(full)) (Phaeodactylum tricornutum); assay: SEC-MALS; light: pre-incubated at 20°C under continuous blue light (400 µW cm^-2 at 450 nm) for 20 min; 100 µl of 150 µM protein on Superdex 200 10/300 GL in buffer C, RT, column continuously illuminated; monomer-dimer
[2] = target: Aureochrome 1a from Phaeodactylum tricornutum, full-length protein (PtAu1a_(full)) (Phaeodactylum tricornutum); assay: SEC-MALS; dark: pre-incubated at 20°C in the dark for 20 min; 100 µl of 150 µM protein on Superdex 200 10/300 GL in buffer C (20 mM HEPES pH 7.5, 100 mM NaCl, 10 mM MgCl2, 5% glycerol), RT, column kept in the dark; monomer-dimer
[3] = target: PtAu1aLOV, LOV domain of PtAu1a containing its N- and C-terminal α-helical extensions A´α and Jα (Phaeodactylum tricornutum); assay: MST; dark; Monolith NT.115; 20 nM DY-647-labelled PtAu1aLOV with a 1:2 dilution series of unlabelled PtAu1aLOV; 20 mM HEPES pH 7.5, 100 mM NaCl, 10% glycerol; dimer to monomers
[4] = target: PtAu1aLOV, LOV domain of PtAu1a containing its N- and C-terminal α-helical extensions A´α and Jα (Phaeodactylum tricornutum); assay: SEC-MALS; light: pre-incubated at 20°C under continuous blue light (400 µW cm^-2 at 450 nm) for 20 min; 100 µl of 150 µM protein on Superdex 200 10/300 GL in buffer C, RT, column continuously illuminated; monomer-dimer
[5] = target: PtAu1a_(bZIP-LOV), truncated PtAu1a variant encompassing the bZIP and LOV domain (Phaeodactylum tricornutum); assay: as above
[6] = target: PtAu1a_(bZIP-LOV), truncated PtAu1a variant encompassing the bZIP and LOV domain (Phaeodactylum tricornutum); assay: SEC-MALS; dark: pre-incubated at 20°C in the dark for 20 min; 100 µl of 150 µM protein on Superdex 200 10/300 GL in buffer C (20 mM HEPES pH 7.5, 100 mM NaCl, 10 mM MgCl2, 5% glycerol), RT, column kept in the dark; monomer-dimer
[7] = tested on: Aureochrome 1a full length (PtAu1afull) (Phaeodactylum tricornutum); assay: EMSA; settings: 10 mM MgCl2, EMSA: 50 nM DNA in buffer C (20 mM HEPES pH 7.5, 100 mM NaCl, 10 mM MgCl2, 5% glycerol) plus 5% glycerol, 20 min at RT, dark or blue light (450 nm), 10% TGE …

For “Aureochrome 1a from Phaeodactylum tricornutum, full-length protein (PtAu1a_(full)) (natural protein)”, the stoichiometry N [1] was 2 and the stoichiometry N [2] was 2.
“PtAu1aLOV, LOV domain of PtAu1a containing its N- and C-terminal α-helical extensions A´α and Jα (domain or fragment)” gave a Kd [3] of 13.6 µM and a stoichiometry N [4] of 2.
For “PtAu1a_(bZIP-LOV), truncated PtAu1a variant encompassing the bZIP and LOV domain (domain or fragment)”, the stoichiometry N [5] was 2 and the stoichiometry N [6] was 2.
“TGTAGCGTCTGACGTGGTTCCCAC (double strand) [24-bp dsCYC2 promoter probe]” gave a K half ([7]; continuous blue light, EC50, Hill coefficient 1.65) of 90 nM and a K half ([7]; dark, EC50, Hill coefficient 1.35) of 860 nM.
